The record followed here is patent US20150065444.

The target in this series is Purified 6x His-tagged PCNA, P12004.
Chain of Purified 6x His-tagged PCNA, P12004 (P12004 whole entry): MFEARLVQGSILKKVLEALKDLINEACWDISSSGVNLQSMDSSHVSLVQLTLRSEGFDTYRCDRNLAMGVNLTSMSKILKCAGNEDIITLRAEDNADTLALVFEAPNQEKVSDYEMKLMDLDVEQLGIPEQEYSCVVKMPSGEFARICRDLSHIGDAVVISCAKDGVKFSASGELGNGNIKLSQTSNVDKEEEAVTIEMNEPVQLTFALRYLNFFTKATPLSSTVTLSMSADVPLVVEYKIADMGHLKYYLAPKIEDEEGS

B1: Purified recombinant 6x His-tagged Arm1 (protein)
chain: MAVVPASLSGQDVGSFAYLTIKDRIPQILTKVIDTLHRHKSEFFEKHGEEGVEAEKKAISLLSKLRNELQTDKPFIPLVEKFVDTDIWNQYLEYQQSLLNESDGKSRWFYSPWLLVECYMYRRIHEAIIQSPPIDYFDVFKESKEQNFYGSQESIIALCTHLQQLIRTIEDLDENQLKDEFFKLLQISLWGNKCDLSLSGGESSSQNTNVLNSLEDLKPFILLNDMEHLWSLLSNCKKTREKASATRVYIVLDNSGFELVTDLILADFLLSSELATEVHFYGKTIPWFVSDTTIHDFNWLIEQVKHSNHKWMSKCGADWEEYIKMGKWVYHNHIFWTLPHEYCAMPQVAPDLYAELQKAHLILFKGDLNYRKLTGDRKWEFSVPFHQALNGFHPAPLCTIRTLKAEIQVGLQPGQGEQLLASEPSWWTTGKYGIFQYDGPL
Take B1: the “PCNA-dependent carboxyl methyltransferase activity (vapour diffusion assay)” value is on record as “Arm possesses a PCNA-dependent carboxyl methyltransferase activity”.
